Positions count from the first letter of the chain named.
B1: huB7010 (antibody, human IgG1, kappa, V domains shown)
VH: EIQLVQSGSELKKPGASVKVSCKTSGYTFTNYGMNWVRQAPGQGLEWMGWINTYTGEPTYADEFKGRFVFSLETSVSTAYLQISSLKAEDTAVYYCARGDSFTTEILRNWYFDVWGQGTTVTVSS
VL: DIQMTQSPSSLSASVGDRVTITCGASENIYGALNWYQQKPGKVPKLLIYGATNLADGVPSRFSGSGSGRDYTLTISSLQPEDVATYYCQNVLSTPWTFGGGTKVEIKR
notes: Humanized IgG1
B2: huB7004 (antibody, human IgG1, kappa, V domains shown)
VH: B1 VH
VL: B1 VL with R69T, Y71F
notes: Humanized IgG1
B3: huB7022 (antibody, human IgG1, kappa, V domains shown)
VH: B1 VH
VL: B1 VL with Q38R, V43S, D70Q
notes: Humanized IgG1
B4: huB7020 (antibody, human IgG1, kappa, V domains shown)
VH: B1 VH with I2V, T24A, E73D
VL: B1 VL with Q38R, V43S, D70Q
notes: Humanized IgG1
B5: huB7012 (antibody, human IgG1, kappa, V domains shown)
VH: B1 VH with E46K, S84N
VL: B1 VL
notes: Humanized IgG1
B6: huB7006 (antibody, human IgG1, kappa, V domains shown)
VH: B1 VH with E46K, S84N
VL: B1 VL with R69T, Y71F
notes: Humanized IgG1
B7: huB7014 (antibody, human IgG1, kappa, V domains shown)
VH: B1 VH with I2V, T24A, E73D
VL: B1 VL with V43S
notes: Humanized IgG1
B8: huB7024 (antibody, human IgG1, kappa, V domains shown)
VH: B1 VH with E46K, S84N
VL: B1 VL with Q38R, V43S, D70Q
notes: Humanized IgG1
B9: huB7008 (antibody, human IgG1, kappa, V domains shown)
VH: B1 VH with I2V, T24A, E73D
VL: B1 VL
notes: Humanized IgG1
B10: huB7016 (antibody, human IgG1, kappa, V domains shown)
VH: B1 VH
VL: B1 VL with V43S
notes: Humanized IgG1
B11: huB7018 (antibody, human IgG1, kappa, V domains shown)
VH: B1 VH with E46K, S84N
VL: B1 VL with V43S
notes: Humanized IgG1
B12: huF4027 (antibody, human IgG1, kappa, V domains shown)
VH: EVQLVQSGAEVKKPGSSVKVSCKASGDTFPRYNMHWVRQAPGQGLEWMGAIFPGNGETSYNQNFKGRVTLTADKSTSTAYMELSSLRSEDTAVYYCARNSYYDYAWFTYWGQGTLVTVSS
VL: DIVMTQSPDSLAVSLGERATINCRASKSVSSSGYSFMHWYQQKPGQPPKLLIYLASNLESGVPDRFSGSGSGTDFTLTISSLQAEDVAVYYCQHSREFPPTFGQGTKLEIKR
notes: Humanized IgG1
B13: huF4009 (antibody, human IgG1, kappa, V domains shown)
VH: B12 VH with N55T
VL: B12 VL with S56D
notes: Humanized IgG1
B14: huF4025 (antibody, human IgG1, kappa, V domains shown)
VH: B12 VH with D27G, P30S, L70I
VL: B12 VL
notes: Humanized IgG1

Biological target: T1, His-tagged CD70 protein extracellular domain (His-TNC-CD70) (human)
T1 construct: Expressed in 293 cells; also called human His-TNC-CD70 antigen; human CD70 antigen
T1 chain: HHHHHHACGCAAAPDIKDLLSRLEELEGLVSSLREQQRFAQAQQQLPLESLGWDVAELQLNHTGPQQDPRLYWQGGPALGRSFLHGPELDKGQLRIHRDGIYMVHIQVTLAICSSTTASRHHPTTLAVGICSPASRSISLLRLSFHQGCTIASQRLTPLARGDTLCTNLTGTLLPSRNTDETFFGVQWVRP
Test: SPR Biacore T200, antibody captured by anti-human Fc, His-TNC-CD70 in flow, 1:1 model
Experimental: The affinity of the chimeric and humanized antibodies of the present disclosure for the human CD70 antigen was tested using a Biacore instrument. The procedures are as follows:
The human Fc capture molecules were covalently coupled to a CM5 biosensor chip (CAT #BR-1005-30, GE) according to the method described in the instructions of the human Fc capture kit (CAT #BR-1008-39, GE) for affinity capture of the antibodies to be tested. Then, a human His-TNC-CD70 antigen (set forth in SEQ ID NO: 1) flowed through the surface of the chip, and the reaction signal was detected in real time using a Biacore T200 instrument to obtain association and dissociation curves. After the dissociation was completed for each cycle, the biochip was washed and regenerated with a regeneration solution configured in the human antibody capture kit (GE). Data were fitted using a 1:1 model.

Binder | Kd [nM] | koff [s⁻¹] | kon [M⁻¹ s⁻¹]
B1 | 0.0396 | 0.000172 | 4.36e+06
B2 | 0.0282 | 0.000157 | 5.58e+06
B3 | 0.0442 | 0.000195 | 4.41e+06
B4 | 0.0276 | 0.000159 | 5.76e+06
B5 | 0.0257 | 0.000154 | 5.99e+06
B6 | 0.0246 | 0.000158 | 6.41e+06
B7 | 0.0371 | 0.000182 | 4.92e+06
B8 | 0.0464 | 0.000205 | 4.41e+06
B9 | 0.0347 | 0.000169 | 4.87e+06
B10 | 0.0418 | 0.000185 | 4.43e+06
B11 | 0.0464 | 0.000191 | 4.12e+06
B12 | 0.0335 | 9.13e-05 | 2.73e+06
B13 | 0.0455 | 0.000114 | 2.51e+06
B14 | 0.0403 | 8.68e-05 | 2.15e+06

Source: patent US20230257472A1 (JIANGSU HENGRUI MEDICINE, published 2023)
